According to US4285932A, “Enzyme derivatives for use in the treatment of venous thrombosis” (Beecham Group Limited, priority 1978, dated 1981):

B1: p-Ethoxybenzoyl: human plasmin, active site serine blocked by p-ethoxybenzoyl (acylating agent of Example 8) (protein, UniProt P00747 20-580; P00747 581-810, looked up)
Plasmin heavy chain A: EPLDDYVNTQGASLFSVTKKQLGAGSIEECAAKCEEDEEFTCRAFQYHSKEQQCVIMAENRKSSIIIRMRDVVLFEKKVYLSECKTGNGKNYRGTMSKTKNGITCQKWSSTSPHRPRFSPATHPSEGLEENYCRNPDNDPQGPWCYTTDPEKRYDYCDILECEEECMHCSGENYDGKISKTMSGLECQAWDSQSPHAHGYIPSKFPNKNLKKNYCRNPDRELRPWCFTTDPNKRWELCDIPRCTTPPPSSGPTYQCLKGTGENYRGNVAVTVSGHTCQHWSAQTPHTHNRTPENFPCKNLDENYCRNPDGKRAPWCHTTNSQVRWEYCKIPSCDSSPVSTEQLAPTAPPELTPVVQDCYHGDGQSYRGTSSTTTTGKKCQSWSSMTPHRHQKTPENYPNAGLTMNYCRNPDADKGPWCFTTDPSVRWEYCNLKKCSGTEASVVAPPPVVLLPDVETPSEEDCMFGNGKGYRGKRATTVTGTPCQDWAAQEPHRHSIFTPETNPRAGLEKNYCRNPDGDVGGPWCYTTNPRKLYDYCDVPQCAAPSFDCGKPQVEPKKCPGR
Plasmin light chain B: VVGGCVAHPHSWPWQVSLRTRFGMHFCGGTLISPEWVLTAAHCLEKSPRPSSYKVILGAHQEVNLEPHVQEIEVSRLFLEPTRKDIALLKLSSPAVITDKVIPACLPSPNYVVADRTECFITGWGETQGTFGAGLLKEAQLPVIENKVCNRYEFLNGRVQSTELCAGHLAGGTDSCQGDSGGPLVCFEKDKYILQGVTSWGLGCARPNKPGVYVRVSRFVTWIEGVMRNN
modifications: plasmin p-ethoxybenzoyl acylated active site
B2: 2,4 Dimethoxybenzoyl: human plasmin, active site serine blocked by 2,4-dimethoxybenzoyl (acylating agent of Example 6) (protein, UniProt P00747 20-580; P00747 581-810, looked up)
Plasmin heavy chain A: B1 Plasmin heavy chain A
Plasmin light chain B: B1 Plasmin light chain B
modifications: plasmin 2,4-dimethoxybenzoyl acylated active site
B3: Trans-Cinnamoyl Porcine Plasmin (protein, UniProt P06867 20-579; P06867 580-809, looked up)
Plasmin heavy chain A: DSLDDYVNTQGAFLFSLSRKQVAARSVEECAAKCEAETNFICRAFQYHSKDQQCVVMAENSKTSPIARMRDVVLFEKRIYLSECKTGNGKNYRGTTSKTKSGVICQKWSVSSPHIPKYSPEKFPLAGLEENYCRNPDNDEKGPWCYTTDPETRFDYCDIPECEDECMHCSGEHYEGKISKTMSGIECQSWGSQSPHAHGYLPSKFPNKNLKMNYCRNPDGEPRPWCFTTDPNKRWEFCDIPRCTTPPPTSGPTYQCLKGRGENYRGTVSVTASGHTCQRWSAQSPHKHNRTPENFPCKNLEENYCRNPDGETAPWCYTTDSEVRWDYCKIPSCGSSTTSTEYLDAPVPPEQTPVAQDCYRGNGESYRGTSSTTITGRKCQSWVSMTPHRHEKTPGNFPNAGLTMNYCRNPDADKSPWCYTTDPRVRWEYCNLKKCSETEQQVTNFPAIAQVPSVEDLSEDCMFGNGKRYRGKRATTVAGVPCQEWAAQEPHRHSIFTPETNPRAGLEKNYCRNPDGDDNGPWCYTTNPQKLFDYCDVPQCVTSSFDCGKPKVEPKKCPAR
Plasmin light chain B: VVGGCVSIPHSWPWQISLRHRYGGHFCGGTLISPEWVLTAKHCLEKSSSPSSYKVILGAHEEYHLGEGVQEIDVSKLFKEPSEADIALLKLSSPAIITDKVIPACLPTPNYVVADRTACYITGWGETKGTYGAGLLKEARLPVIENKVCNRYEYLGGKVSPNELCAGHLAGGIDSCQGDSGGPLVCFEKDKYILQGVTSWGLGCALPNKPGVYVRVSRFVTWIEEIMRRN
modifications: plasmin trans-cinnamoyl acylated active site
notes: porcine plasmin acylated with p-amidinophenyl transcinnamate
B4: p-Methyl-t-cinnamoyl: porcine plasmin, active site serine blocked by p-methyl-trans-cinnamoyl (protein, UniProt P06867 20-579; P06867 580-809, looked up)
Plasmin heavy chain A: B3 Plasmin heavy chain A
Plasmin light chain B: B3 Plasmin light chain B
modifications: plasmin p-methyl-trans-cinnamoyl acylated active site
B5: p-Fluorobenzoyl: porcine plasmin, active site serine blocked by p-fluorobenzoyl (protein, UniProt P06867 20-579; P06867 580-809, looked up)
Plasmin heavy chain A: B3 Plasmin heavy chain A
Plasmin light chain B: B3 Plasmin light chain B
modifications: plasmin p-fluorobenzoyl acylated active site
B6: p-Anisoyl: porcine plasmin, active site serine blocked by p-anisoyl; porcine column of Table 1 (protein, UniProt P06867 20-579; P06867 580-809, looked up)
Plasmin heavy chain A: B3 Plasmin heavy chain A
Plasmin light chain B: B3 Plasmin light chain B
modifications: plasmin p-anisoyl acylated active site

Legend:
Format in all cases: biochemical
[1] = system: streptokinase-human plasminogen activator complex; assay: Deacylation of acylated streptokinase-human plasminogen activator complex to free enzyme; details: acyl-activator complex solution; 37° C.
Protocol: (§1) The pseudo-first order rate constant is determined by hydrolysing the enzyme derivative under physiological conditions i.e. in isotonic aqueous media at pH 7.4 and at 37° C. At regular intervals aliquots are withdrawn and incubated with a chromogenic or fluorogenic protease substrate such as S-2251 (H-D-Val-Leu-Lys-p-nitroanilide 2HCl) and the rate of conversion of the substrate measured.
(§2) The hydrolysis is followed until such time as the rate of conversion of substrate reaches a maximum. The rate constant k is then calculated by plotting: […]
(§3) loge (1-^At /Amax) against t
(§4) where Amax the maximum rate at which an aliquot converts substrate and At is the rate at which an aliquot converts substrate at time t.

[2] = system: Human Plasmin; assay: Deacylation (hydrolysis) of active-site blocked human plasmin, pseudo-first order rate constant followed by regain of activity on chromogenic substrate S-2251; details: active site serine substituted human plasmin; pH 7.4, 37° C.
Protocol: as §1, §2, §3, §4

[3] = system: Porcine Plasmin; assay: Deacylation (hydrolysis) of active-site blocked porcine plasmin, pseudo-first order rate constant followed by regain of activity on chromogenic substrate; details: for Deacylation rate, Porcine Plasmin K sec^-1 × 10^4: active site serine substituted porcine plasmin, pH 7.4, 37° C.
Protocol: as §1, §2, §3, §4

[4] = system: Porcine Plasmin; assay: Residual enzyme activity of blocked porcine plasmin versus original enzyme; details: after acylation and dialysis
Protocol: The time for which the reaction is allowed to proceed depends upon the blocking reagent employed, the temperature at which the reaction is carried out and the enzyme selected for blocking. The optimum time period for any particular circumstances may be selected by following the decrease in enzymic activity by incubating aliquots with a chromogenic or fluorogenic substrate.

Row | Molecule | Deacylation rate, Human Plasmin K sec^-1 × 10^4 [2] [sec^-1 × 10^4] | Deacylation rate, Porcine Plasmin K sec^-1 × 10^4 [3] [sec^-1 × 10^4] | further results
1 | 3-Methyl p-Anisoyl Streptokinase-human Plasminogen Activator Complex [Example 23] |  |  | pseudo-first order (deacylation) rate constant of regeneration to free enzyme [1]: 0.0001 s⁻¹
2 | p-Anisoyl Streptokinase-Human Plasminogen Activator Complex [Example 22] |  |  | pseudo-first order (deacylation) rate constant of regeneration to free enzyme [1]: 0.00027 s⁻¹
3 | B1 | 1.10 |  | 
4 | B2 | 1.10 |  | 
5 | B3 |  | 4.20 | time for reactivation ([3]; deacylation conditions): two; activity of the derivative relative to the original enzyme [4]: less than 0.5%
6 | B4 |  | 2.92 | 
7 | B5 |  | 3.30 | 
8 | B6 | 1.10 | 0.33 | 
